This test deals with T1, Methylococcus capsulatus (Bath) soluble methane monooxygenase hydroxylase (sMMOH), alpha subunit (Methylococcus capsulatus (Bath), UniProt P22869 1-527).
T1 sequence (looked up): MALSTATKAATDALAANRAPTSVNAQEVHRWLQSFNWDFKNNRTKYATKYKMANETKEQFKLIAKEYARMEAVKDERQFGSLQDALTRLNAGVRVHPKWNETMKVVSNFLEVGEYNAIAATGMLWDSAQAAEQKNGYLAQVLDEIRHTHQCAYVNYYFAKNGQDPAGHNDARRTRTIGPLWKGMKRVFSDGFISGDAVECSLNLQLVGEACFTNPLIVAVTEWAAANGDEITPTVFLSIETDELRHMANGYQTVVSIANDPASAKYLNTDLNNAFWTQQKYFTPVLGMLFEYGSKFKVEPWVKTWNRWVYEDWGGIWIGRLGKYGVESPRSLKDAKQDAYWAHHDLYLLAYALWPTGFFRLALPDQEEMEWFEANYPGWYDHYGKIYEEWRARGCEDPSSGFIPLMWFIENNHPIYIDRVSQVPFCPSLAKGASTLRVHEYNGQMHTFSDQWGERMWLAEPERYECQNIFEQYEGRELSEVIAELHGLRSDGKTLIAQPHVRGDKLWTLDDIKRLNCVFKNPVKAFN
Description: cryo-EM structure.

B1: Methylococcus capsulatus (Bath) soluble methane monooxygenase hydroxylase (sMMOH), beta subunit (natural protein, UniProt P18798 1-389, looked up)
chain: MSMLGERRRGLTDPEMAAVILKALPEAPLDGNNKMGYFVTPRWKRLTEYEALTVYAQPNADWIAGGLDWGDWTQKFHGGRPSWGNETTELRTVDWFKHRDPLRRWHAPYVKDKAEEWRYTDRFLQGYSADGQIRAMNPTWRDEFINRYWGAFLFNEYGLFNAHSQGAREALSDVTRVSLAFWGFDKIDIAQMIQLERGFLAKIVPGFDESTAVPKAEWTNGEVYKSARLAVEGLWQEVFDWNESAFSVHAVYDALFGQFVRREFFQRLAPRFGDNLTPFFINQAQTYFQIAKQGVQDLYYNCLGDDPEFSDYNRTVMRNWTGKWLEPTIAALRDFMGLFAKLPAGTTDKEEITASLYRVVDDWIEDYASRIDFKADRDQIVKAVLAGLK
Regarding B1, the binding result is recorded as “binds”.

For the origin of these results see PMC10062032 (ACS Nano, 2023).
